In PMC12718150:

Key:
[1] = target: 2-hydroxy-hept-2,4-diene-1,7-dioate (HHDD) isomerase (HHDDI) from Acinetobacter baumannii TH (Acinetobacter baumannii TH); test: SEC; single purified enzyme (0.5-1.0 mg/ml) on ENrich SEC650 (10 x 300 mm), buffer G (50 mM HEPES, pH 7.0, 150 mM NaCl), 0.5 ml/min, 4 °C; native MW from a calibration curve of protein standards against subunit MW
[2] = target: 2-hydroxy-hept-2,4-diene-1,7-dioate (HHDD) isomerase (HHDDI) from Acinetobacter baumannii TH (Acinetobacter baumannii TH)
[3] = target: 2-hydroxy-hept-2,4-diene-1,7-dioate (HHDD) isomerase (HHDDI) from Acinetobacter baumannii TH (Acinetobacter baumannii TH); test: SEC; ENrich SEC650 gel filtration column, FPLC; OPETD and HHDDI mixed at 1:1 molar ratio (0.5 and 1.0 mg/ml), incubated on ice in buffer G (50 mM HEPES, pH 7.0, 150 mM NaCl); 0.5 ml/min, 4 °C; native MW from a calibration curve

| stoichiometry N [1] | tri-acid decarboxylation activity of the OPETD-HHDDI complex against HHDDI alone (synthesized tri-acid substrate, LC-MS/MS of the di-acid) [2] | tri-acid decarboxylation activity of the OPETD-HHDDI complex against OPETD alone (synthesized tri-acid substrate, LC-MS/MS of the di-acid) [2] | stoichiometry N (OPETD per HHDDI) [3] | Substance |
| --- | --- | --- | --- | --- |
| 2 | – | – | – | 2-hydroxy-hept-2,4-diene-1,7-dioate (HHDD) isomerase (HHDDI) from Acinetobacter baumannii TH (enzyme) |
| – | 12 fold | 60 fold | 1 | 5-oxo-pent-3-ene-1,2,5-tricarboxylate (OPET) decarboxylase (OPETD) from Acinetobacter baumannii TH (enzyme) |
